Reference: paper PMC7504066

Experiments:
[1] = target: Plasmodium vivax PLP synthase domain (Pdx1) (Plasmodium vivax); assay: SAXS; batch SAXS at EMBL beamline P12 (PETRA III), 293 K; Pdx1 and SEC-purified Pdx complex (mixed 1:1, overnight) at 1, 2 and 5 mg mL^-1; ab initio (GASBOR, P6) and rigid body (SASREF) models, SAXSMoW mass
[2] = target: Plasmodium vivax PLP synthase domain (Pdx1) (Plasmodium vivax); assay: negative-stain electron microscopy; Pdx1 alone, 25-30 µg mL^-1 in 20 mM Tris pH 8.0, 200 mM NaCl, 5 mM MTG, 2% uranyl acetate
[3] = target: Plasmodium vivax PLP synthase domain (Pdx1) (Plasmodium vivax); assay: dynamic light scattering; purified Pdx1 alone and SEC-purified Pdx complex in a quartz cuvette, Spectroscatter-301, 660 nm laser, 90° angle
[4] = target: Plasmodium vivax PLP synthase domain (Pdx1) (Plasmodium vivax); assay: native gel or EMSA; native PAGE of the purified proteins and of the SEC-purified Pdx complex
[5] = target: Plasmodium vivax PLP synthase domain (Pdx1) (Plasmodium vivax); assay: SEC; each protein alone on a Superdex 200 26/60 column; peak fractions evaluated by PAGE

Plasmodium vivax glutaminase domain (Pdx2) (enzyme)
12: stoichiometry N (Pdx2 per Pdx1 dodecamer (12:12)) [1]

Plasmodium vivax PLP synthase domain (Pdx1) (enzyme)
12: stoichiometry N [1] | stoichiometry N [2] | stoichiometry N [3] | stoichiometry N [4] | stoichiometry N [5]
